Publication doi:10.1101/521658 (bioRxiv, 2019)

Molecular target: T1, 6HIS-Δ38NADKc-1, refolded (A. thaliana, UniProt Q0WUY1 39-534)
T1 sequence (looked up): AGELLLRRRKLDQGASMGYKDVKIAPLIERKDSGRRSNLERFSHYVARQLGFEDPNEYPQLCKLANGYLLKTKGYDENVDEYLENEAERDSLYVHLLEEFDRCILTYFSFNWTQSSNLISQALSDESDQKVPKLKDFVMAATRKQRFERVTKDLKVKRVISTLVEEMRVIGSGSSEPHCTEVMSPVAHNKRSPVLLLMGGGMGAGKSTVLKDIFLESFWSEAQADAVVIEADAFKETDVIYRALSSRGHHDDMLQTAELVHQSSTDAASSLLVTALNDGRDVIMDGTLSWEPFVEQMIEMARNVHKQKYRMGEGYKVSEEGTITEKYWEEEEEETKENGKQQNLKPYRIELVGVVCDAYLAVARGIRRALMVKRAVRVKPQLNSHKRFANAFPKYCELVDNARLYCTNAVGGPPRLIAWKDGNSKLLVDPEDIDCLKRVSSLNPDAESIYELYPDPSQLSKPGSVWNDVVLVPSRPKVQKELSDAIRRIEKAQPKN
Test: enzyme activity titration

B1: A. thaliana (At) CaM1 (natural protein)
chain: not shown
B1 was tested, and the Kd was 0.6 to 1 nM.
